# Experimental data reported in patent publication US9206411B2, “Staphylococcal Phage2638A endolysin amidase domain is lytic for Staphylococcus aureus” (priority 2012, dated 2015).
# B1: 2638A Endolysin: 486 amino acid staphylococcal phage 2638A endolysin (SEQ ID NO:4), C-terminally 6×His-tagged; M23 peptidase, amidase, SH3b domains (protein)
# chain: MLTAIDYLTKKGWKISSDPRTYDGYPKNYGYRNYHENGINYDEFCGGYHRAFDVYSNETNDVPAVTSGTVIEANDYGNFGGTFVIRDANDNDWIYGHLQRGSMRFVVGDKVNQGDIIGLQGNSNYYDNPMSVHLHLQLRPKDAKKDEKSQVCSGLAMEKYDITNLNAKQDKSKNGSVKELKHIYSNHIKGNKITAPKPSIQGVVIHNDYGSMTPSQYLPWLYARENNGTHVNGWASVYANRNEVLWYHPTDYVEWHCGNQWANANLIGFEVCESYPGRISDKLFLENEEATLKVAADVMKSYGLPVNRNTVRLHNEFFGTSCPHRSWDLHVGKGEPYTTTNINKMKDYFIKRIKHYYDGGKLEVSKAATIKQSDVKQEVKKQEAKQIVKATDWKQNKDGIWYKAEHASFTVTAPEGIITRYKGPWTGHPQAGVLQKGQTIKYDEVQKFDGHVWVSWETFEGETVYMPVRTWDAKTGKVGKLWGEIKLEHHHHHH
# modifications: C-terminal His6 tag; Mutated Phage 2638a
# notes: M23 peptidase, amidase, SH3b domains
# Key:
# [1] = system: S. aureus ALC 1342; assay: Plate lysis, susceptibility of strains to 2638A (Table 1); type: cell-based
# Description: (§1) Purified proteins for each construct were diluted in sterile nickel column elution buffer, and 6 μL of lysostaphin (11 μg) or the constructs (0.2 nmoles or ˜11 μg for the repaired construct 2638A 1-180Mut-486) was spotted onto a freshly spread lawn of S. aureus strain NRS119 (SA LinR #12; linezolid resistant) growing cells that had air dried for 30 min on tryptic soy agar (TSA) plates. L=[…] Lysostaphin (Sigma); Spot 1=11 μg; all other constructs are 0.2 nmoles (˜11 μg for the repaired construct 2638A 1-180Mut-486) […]. The spotted plates were air dried for 10 min in a laminar flow hood and incubated overnight in a 37° C. environment. Scoring of the cleared spots occurred within 20 h of plating the cells.
# (§2) The Plate Lysis assay results (FIG. 3) agree with the turbidity reduction assay. Each of the M23 peptidase dependent or SH3b-truncating constructs showing weak activity on S. aureus strain Newman strain. In addition to the Plate Lysis results in FIG. 3, we have also examined numerous strains with reduced but real lytic activity (Table 1). However, the plate lysis results with the 2638A endolysin constructs are extremely novel in appearance. Plate lysis results are routinely visualized as a discrete cleared spot on a lawn of bacteria after a single overnight of culture. […] In contrast, the 2638A endolysin is unique in that sometimes this cleared zone requires multiple days to appear. […] Thus, there is also a likelihood that the enzyme might work preferentially on late log or stationary phase cells in the plate lysis assay, as the 3 day old culture is likely not growing as quickly as the freshly-plated overnight culture.
# [2] = system: S. aureus MN8 Δica; assay: as above; type: cell-based
# Description: as §1, §2
# [3] = system: S. aureus NRS 382 (MRSA); assay: as above; type: cell-based
# Description: as §1, §2
# [4] = system: S. aureus Newman ΔdltA; assay: as above; type: cell-based
# Description: as §1, §2
# [5] = system: S. aureus Tanji 19; assay: as above; type: cell-based
# Description: as §1, §2
# [6] = system: S. aureus Tanji 1; assay: as above; type: cell-based
# Description: as §1, §2
# [7] = system: S. aureus Tanji 20; assay: as above; type: cell-based
# Description: as §1, §2
# [8] = system: S. aureus Tanji 3; assay: as above; type: cell-based
# Description: as §1, §2
# [9] = system: S. aureus Tanji 48; assay: as above; type: cell-based
# Description: as §1, §2
# [10] = system: S. aureus Tanji 49; assay: as above; type: cell-based
# Description: as §1, §2
# [11] = system: S. aureus Tanji 9; assay: as above; type: cell-based
# Description: as §1, §2
# [12] = system: S. epidermidis; assay: as above; type: cell-based
# Description: as §1, §2
# [13] = system: S. hyicus; assay: as above; type: cell-based
# Description: as §1, §2
# [14] = system: S. aureus MN8 ΔsarA; assay: as above; type: cell-based; design: key to Susceptibility to lysis by 2638A, day 1: − = >100 pmol; (+) = very faint lysis zone; + = 100 pmol; ++ = 10 pmol; +++ = 1 pmol
# Description: as §1, §2
# [15] = system: S. aureus NRS 383 (MRSA); assay: as above; type: cell-based; design: key to Susceptibility to lysis by 2638A, day 1: − = >100 pmol; (+) = very faint lysis zone; + = 100 pmol; ++ = 10 pmol; +++ = 1 pmol
# Description: as §1, §2
# [16] = system: S. aureus NRS 384 (MRSA); assay: as above; type: cell-based; design: key to Susceptibility to lysis by 2638A, day 3+: − = >100 pmol; (+) = very faint lysis zone; + = 100 pmol; ++ = 10 pmol; +++ = 1 pmol
# Description: as §1, §2
# [17] = system: S. aureus Tanji 21; assay: as above; type: cell-based; design: key to Susceptibility to lysis by 2638A, day 3+: − = >100 pmol; (+) = very faint lysis zone; + = 100 pmol; ++ = 10 pmol; +++ = 1 pmol
# Description: as §1, §2
# [18] = system: S. aureus Tanji 47; assay: as above; type: cell-based; design: key to Susceptibility to lysis by 2638A, day 3+: − = >100 pmol; (+) = very faint lysis zone; + = 100 pmol; ++ = 10 pmol; +++ = 1 pmol
# Description: as §1, §2
# [19] = system: S. simulans; assay: as above; type: cell-based; design: key to Susceptibility to lysis by 2638A, day 3+: − = >100 pmol; (+) = very faint lysis zone; + = 100 pmol; ++ = 10 pmol; +++ = 1 pmol
# Description: as §1, §2
# [20] = system: S. aureus Tanji 29; assay: as above; type: cell-based; design: key: − = >100 pmol; (+) = very faint lysis zone; + = 100 pmol; ++ = 10 pmol; +++ = 1 pmol
# Description: as §1
# (§3) The Plate Lysis assay results (FIG. 3) agree with the turbidity reduction assay. Each of the M23 peptidase dependent or SH3b-truncating constructs showing weak activity on S. aureus strain Newman strain. In addition to the Plate Lysis results in FIG. 3, we have also examined numerous strains with reduced but real lytic activity (Table 1). However, the plate lysis results with the 2638A endolysin constructs are extremely novel in appearance. Plate lysis results are routinely visualized as a discrete cleared spot on a lawn of bacteria after a single overnight of culture. […]
# [21] = system: S. aureus strain NRS119 (SA LinR #12; linezolid resistant); assay: Plate lysis assay (FIG. 3); type: cell-based; conditions: lawn on TSA plates, observed over days
# Description: as §1, §3
# [22] = system: MRSA strain NRS382; assay: Control of systemic MRSA infection in a murine model; type: in vivo, Staphylococcus aureus
molecule,measurement,setting,value
B1,"Susceptibility to lysis by 2638A, day 1",[1]; day 1,− (− = >100 pmol)
same,"Susceptibility to lysis by 2638A, day 3+",[1]; day 3+,− (− = >100 pmol)
same,"Susceptibility to lysis by 2638A, day 1",[2]; day 1,− (− = >100 pmol)
same,"Susceptibility to lysis by 2638A, day 3+",[2]; day 3+,++ (++ = 10 pmol)
same,"Susceptibility to lysis by 2638A, day 1",[3]; day 1,− (− = >100 pmol)
same,"Susceptibility to lysis by 2638A, day 3+",[3]; day 3+,− (− = >100 pmol)
same,"Susceptibility to lysis by 2638A, day 1",[4]; day 1,− (− = >100 pmol)
same,"Susceptibility to lysis by 2638A, day 3+",[4]; day 3+,− (− = >100 pmol)
same,"Susceptibility to lysis by 2638A, day 1",[5]; day 1,− (− = >100 pmol)
same,"Susceptibility to lysis by 2638A, day 3+",[5]; day 3+,+ (+ = 100 pmol)
same,"Susceptibility to lysis by 2638A, day 1",[6]; day 1,− (− = >100 pmol)
same,"Susceptibility to lysis by 2638A, day 3+",[6]; day 3+,− (− = >100 pmol)
same,"Susceptibility to lysis by 2638A, day 1",[7]; day 1,− (− = >100 pmol)
same,"Susceptibility to lysis by 2638A, day 3+",[7]; day 3+,+ (+ = 100 pmol)
same,"Susceptibility to lysis by 2638A, day 1",[8]; day 1,− (− = >100 pmol)
same,"Susceptibility to lysis by 2638A, day 3+",[8]; day 3+,− (− = >100 pmol)
same,"Susceptibility to lysis by 2638A, day 1",[9]; day 1,− (− = >100 pmol)
same,"Susceptibility to lysis by 2638A, day 3+",[9]; day 3+,+ (+ = 100 pmol)
same,"Susceptibility to lysis by 2638A, day 1",[10],− (− = >100 pmol)
same,"Susceptibility to lysis by 2638A, day 1",[11]; day 1,− (− = >100 pmol)
same,"Susceptibility to lysis by 2638A, day 3+",[11]; day 3+,− (− = >100 pmol)
same,"Susceptibility to lysis by 2638A, day 1",[12]; day 1,− (− = >100 pmol)
same,"Susceptibility to lysis by 2638A, day 3+",[12]; day 3+,+ (+ = 100 pmol)
same,"Susceptibility to lysis by 2638A, day 1",[13]; day 1,− (− = >100 pmol)
same,"Susceptibility to lysis by 2638A, day 3+",[13]; day 3+,− (− = >100 pmol)
same,"Susceptibility to lysis by 2638A, day 1",[14]; day 1,(+)
same,"Susceptibility to lysis by 2638A, day 3+",[14]; day 3+,+++ (+++ = 1 pmol)
same,"Susceptibility to lysis by 2638A, day 1",[15]; day 1,(+)
same,"Susceptibility to lysis by 2638A, day 3+",[15]; day 3+,++ (++ = 10 pmol)
same,"Susceptibility to lysis by 2638A, day 1",[16]; day 1,− (− = >100 pmol)
same,"Susceptibility to lysis by 2638A, day 3+",[16]; day 3+,(+)
same,"Susceptibility to lysis by 2638A, day 1",[17]; day 1,− (− = >100 pmol)
same,"Susceptibility to lysis by 2638A, day 3+",[17]; day 3+,(+)
same,"Susceptibility to lysis by 2638A, day 1",[18]; day 1,− (− = >100 pmol)
same,"Susceptibility to lysis by 2638A, day 3+",[18]; day 3+,(+)
same,"Susceptibility to lysis by 2638A, day 1",[19]; day 1,− (− = >100 pmol)
same,"Susceptibility to lysis by 2638A, day 3+",[19]; day 3+,(+)
same,"Susceptibility to lysis by 2638A, day 1",[20],(+)
same,appearance and persistence of the cleared zone in plate lysis,[21],"very broad, ill-defined region of clearing that grows with time, up to four days"
same,% Survival,"[22]; 0 hours, Balb/c mice, I.P. 4×10^7 CFU, treated 30 min post infection: 2638A 200 μg/mouse I.P., Vancomycin 375 μg/mouse s.c., Oxacillin 1250 μg/mouse s.c.",100%
same,% Survival,"[22]; 4 hours, same model and doses",100%
same,% Survival,"[22]; 8 hours, same model and doses",100%
same,% Survival,"[22]; 12 hours, same model and doses",100%
same,% Survival,"[22]; 16 hours, same model and doses",100%
same,% Survival,"[22]; 20 hours, same model and doses",100%
same,% Survival,"[22]; 24 hours, same model and doses",100%
same,% Survival,"[22]; 28 hours, same model and doses",100%
same,% Survival,"[22]; 32 hours, same model and doses",100%
same,% Survival,"[22]; 36 hours, same model and doses",100%
same,% Survival,"[22]; 40 hours, same model and doses",100%
same,% Survival,"[22]; 44 hours, same model and doses",100%
same,% Survival,"[22]; 48 hours (end of the experiment), same model and doses",100%
same,septicemia score at the end of the experiment,"[22]; 48 hours, score 0-5 per Table 4",0
same,Mean NRS382 Titer in the Blood,"[22]; Recovered 48 hr post infection from surviving mice, same doses",0.8 ± 1.9 × 10^1 CFU/ml
